Experimental data taken from the supplement of paper PMC9112550, “Optimization of the antimicrobial peptide Bac7 by deep mutational scanning” (BMC Biology, 2022).

test system: Escherichia coli TOP10; assay: shrunken log2 fold change of peptide-encoding DNA abundance (4.5 h post-induction vs induction); higher = less antimicrobial activity (less host growth inhibition); details: time post-induction: 4.5 h; library: site-saturation at positions 5, 18, 19, 20
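Note: peptides expressed intracellularly from a pBAD plasmid library in pooled LB shake-flask culture, induced with 0.3% L-arabinose, DNA abundance read by NGS, three biological replicates, DESeq2 with apeglm shrinkage.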

Compared with RRIRWRPPRLPRPRPRPEMMPRP, RRIRYRPPRLPRPRPRPQLIPRP is lower in “shrunken log2 fold change” value: 0.399 for the first, -0.3 for the second.

Compared with RRIRFRPPRLPRPRPRPMMSPRP, RRIRIRPPRLPRPRPRPYMDPRP is lower in “shrunken log2 fold change” value: -0.0228 for the first, -0.315 for the second.

RRIRQRPPRLPRPRPRPCISPRP and RRIRIRPPRLPRPRPRPMLIPRP are within 0.2 log units of each other in “shrunken log2 fold change” value: -0.177 for the first, -0.21 for the second.

RRIRIRPPRLPRPRPRPMQEPRP and RRIRRRPPRLPRPRPRPWGDPRP are within 0.2 log units of each other in “shrunken log2 fold change” value: -0.2 for the first, -0.0841 for the second.

Compared with RRIRYRPPRLPRPRPRPSSIPRP, RRIRGRPPRLPRPRPRPTYAPRP is higher in “shrunken log2 fold change” value: -0.141 for the first, 0.436 for the second.

First: RRIRQRPPRLPRPRPRPGIEPRP
Second: RRIRSRPPRLPRPRPRPYWYPRP
The “shrunken log2 fold change” value of the first is higher: -0.113 for the first, -1.45 for the second.

Going from RRIRHRPPRLPRPRPRPTPNPRP to RRIRQRPPRLPRPRPRPSDCPRP, the “shrunken log2 fold change” value falls from -0.00791 to -0.756.

Compared with RRIRDRPPRLPRPRPRPEWFPRP, RRIRVRPPRLPRPRPRPMWHPRP is lower in “shrunken log2 fold change” value: 0.257 for the first, 0.0166 for the second.

Compared with RRIRMRPPRLPRPRPRPPPSPRP, RRIRVRPPRLPRPRPRPEKVPRP is lower in “shrunken log2 fold change” value: 1.95 for the first, 0.13 for the second.

Going from RRIRFRPPRLPRPRPRPLIQPRP to RRIRHRPPRLPRPRPRPTGSPRP, the “shrunken log2 fold change” value rises from -0.289 to 0.0528.

Compared with RRIRKRPPRLPRPRPRPHGRPRP, RRIRQRPPRLPRPRPRPPMFPRP is lower in “shrunken log2 fold change” value: 0.239 for the first, -0.325 for the second.

Compared with RRIRGRPPRLPRPRPRPLEPPRP, RRIRHRPPRLPRPRPRPKHVPRP is lower in “shrunken log2 fold change” value: 0.231 for the first, -0.15 for the second.

First: RRIRARPPRLPRPRPRPGVQPRP
Second: RRIRRRPPRLPRPRPRPRMLPRP
The “shrunken log2 fold change” value of the first is lower: 0.0878 for the first, 0.486 for the second.

RRIRGRPPRLPRPRPRPLHYPRP and RRIRHRPPRLPRPRPRPIWCPRP are within 0.2 log units of each other in “shrunken log2 fold change” value: -0.0826 for the first, -0.0133 for the second.

First: RRIRARPPRLPRPRPRPHFWPRP
Second: RRIRCRPPRLPRPRPRPNKIPRP
The “shrunken log2 fold change” value of the first is higher: 0.23 for the first, -0.461 for the second.

RRIRQRPPRLPRPRPRPYLRPRP and RRIRERPPRLPRPRPRPHDRPRP are within 0.2 log units of each other in “shrunken log2 fold change” value: -0.176 for the first, -0.00992 for the second.

RRIRVRPPRLPRPRPRPDKLPRP and RRIRNRPPRLPRPRPRPGLRPRP are within 0.2 log units of each other in “shrunken log2 fold change” value: -0.0511 for the first, 0.0575 for the second.

RRIRYRPPRLPRPRPRPQVQPRP and RRIRDRPPRLPRPRPRPGDMPRP are within 0.2 log units of each other in “shrunken log2 fold change” value: -0.0106 for the first, 0.164 for the second.

First: RRIRARPPRLPRPRPRPQVGPRP
Second: RRIRDRPPRLPRPRPRPGVWPRP
The “shrunken log2 fold change” value of the first is lower: 0.391 for the first, 0.886 for the second.

RRIRTRPPRLPRPRPRPHEGPRP and RRIRRRPPRLPRPRPRPQYWPRP are within 0.2 log units of each other in “shrunken log2 fold change” value: -0.00663 for the first, -0.147 for the second.

Going from RRIRGRPPRLPRPRPRPSDHPRP to RRIRPRPPRLPRPRPRPCVAPRP, the “shrunken log2 fold change” value rises from 0.0544 to 0.51.

Going from RRIRERPPRLPRPRPRPYVCPRP to RRIRSRPPRLPRPRPRPFNHPRP, the “shrunken log2 fold change” value rises from -1.6 to -1.19.

First: RRIRTRPPRLPRPRPRPERNPRP
Second: RRIRSRPPRLPRPRPRPYFYPRP
The “shrunken log2 fold change” value of the first is higher: -0.201 for the first, -0.695 for the second.

RRIRSRPPRLPRPRPRPPDYPRP and RRIRQRPPRLPRPRPRPMIYPRP are within 0.2 log units of each other in “shrunken log2 fold change” value: -0.0864 for the first, -0.0652 for the second.

Going from RRIRQRPPRLPRPRPRPAQYPRP to RRIRGRPPRLPRPRPRPMINPRP, the “shrunken log2 fold change” value rises from -0.0388 to 0.574.

First: RRIRMRPPRLPRPRPRPNMNPRP
Second: RRIRSRPPRLPRPRPRPQLEPRP
The “shrunken log2 fold change” value of the first is lower: -0.056 for the first, 0.455 for the second.

RRIRDRPPRLPRPRPRPDFHPRP and RRIRDRPPRLPRPRPRPCKYPRP are within 0.2 log units of each other in “shrunken log2 fold change” value: -0.139 for the first, 0.0244 for the second.

Compared with RRIRSRPPRLPRPRPRPPRHPRP, RRIRARPPRLPRPRPRPHYVPRP is lower in “shrunken log2 fold change” value: 0.219 for the first, -0.255 for the second.

First: RRIRDRPPRLPRPRPRPKMTPRP
Second: RRIRLRPPRLPRPRPRPNTGPRP
The “shrunken log2 fold change” value of the first is higher: 0.093 for the first, -0.359 for the second.

RRIRSRPPRLPRPRPRPDRYPRP and RRIRFRPPRLPRPRPRPAKEPRP are within 0.2 log units of each other in “shrunken log2 fold change” value: -0.172 for the first, 0.0148 for the second.

RRIRVRPPRLPRPRPRPLDEPRP and RRIRARPPRLPRPRPRPMKWPRP are within 0.2 log units of each other in “shrunken log2 fold change” value: -0.0276 for the first, 0.126 for the second.

Compared with RRIRERPPRLPRPRPRPSCHPRP, RRIRLRPPRLPRPRPRPQKHPRP is higher in “shrunken log2 fold change” value: -0.934 for the first, -0.299 for the second.

Going from RRIRHRPPRLPRPRPRPQNTPRP to RRIRRRPPRLPRPRPRPANIPRP, the “shrunken log2 fold change” value rises from -0.871 to 0.256.

RRIRFRPPRLPRPRPRPIISPRP and RRIRIRPPRLPRPRPRPPLYPRP are within 0.2 log units of each other in “shrunken log2 fold change” value: -0.332 for the first, -0.331 for the second.

Going from RRIRCRPPRLPRPRPRPQESPRP to RRIRQRPPRLPRPRPRPSMIPRP, the “shrunken log2 fold change” value falls from 0.192 to -0.603.

RRIRVRPPRLPRPRPRPSLPPRP and RRIRDRPPRLPRPRPRPQNQPRP are within 0.2 log units of each other in “shrunken log2 fold change” value: -0.226 for the first, -0.0268 for the second.

Compared with RRIRERPPRLPRPRPRPSFGPRP, RRIRIRPPRLPRPRPRPMFNPRP is lower in “shrunken log2 fold change” value: 0.189 for the first, -0.923 for the second.

With RRIRSRPPRLPRPRPRPSQLPRP the “shrunken log2 fold change” value was -0.302.
